Each block holds one binder with its values, some of them ahead of it.
Assays:
[1] = biological target: T1, GST-1C (glutathione S-transferase fused upstream of the sFlt1-1-specific C-terminal peptide) (human, not fully specified); test: direct ELISA, plate coated with GST-1C, anti-mouse alkaline phosphatase and pNPP, OD405
T1 construct: Bacterially expressed screening antigen coated on ELISA plates; not shown: N-terminal glutathione S-transferase (GST) fusion partner
T1 chain: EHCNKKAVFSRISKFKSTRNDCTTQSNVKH
Description: (§1) To determine reactivity of unique antibodies with sFlt1-1 and sFlt1-14, ELISA was employed. As described above, TRX-Exon14 and GST-1C peptides were expressed and purified from bacteria. ELISA plates were coated with either GST-1C (FIG. 2A) or TRX-Exon14 (FIG. 2B), blocked with BSA and a series of dilutions of each hybridoma supernatant containing mAb was incubated on the coated plates. Bound antibody was detected with anti-mouse alkaline phosphatase secondary antibody and the interaction developed with PNPP. Plates were read using a Molecular Devices Emax plate reader and antibodies with the desired specificity and highest affinity were selected for final ELISA production. These included mouse mAbs EX14-1 to detect sFlt1-14 and 1C-KLH-18 to detect sFlt1. […] A human anti sFLT antibody with properties described above (under Quantitative Capture ELISA) was also used to minimize background in the ELISAs.
(§2) To determine reactivity of unique antibodies with sFlt1-1. sFlt1-14, TRX-Exon14 (SEQ ID NO. 40) and GST-1C (SEQ ID NO. 38) isoforms, ELISA plates were coated with either GST-1C or TRX-Exon14, blocked with BSA and a series of dilutions of each hybridoma supernatant containing mAb (or purified mAb) was incubated on the coated plates. Bound antibody was detected with anti-mouse alkaline phosphatase secondary antibody (Jackson ImmunoResearch) and the interaction developed with pNPP. […]

[2] = biological target: T2, recombinant human sFlt1-1 with C-terminal 6-histidine tag, expressed in CHO cells (human, UniProt P17948 27-656); test: capture ELISA (human anti-sFlt capture, mouse mAb detection)
T2 construct: also called sFlt1_v1; sFlt1-i13
T2 sequence (P17948 other isoform, or with tags, fused parts or gaps): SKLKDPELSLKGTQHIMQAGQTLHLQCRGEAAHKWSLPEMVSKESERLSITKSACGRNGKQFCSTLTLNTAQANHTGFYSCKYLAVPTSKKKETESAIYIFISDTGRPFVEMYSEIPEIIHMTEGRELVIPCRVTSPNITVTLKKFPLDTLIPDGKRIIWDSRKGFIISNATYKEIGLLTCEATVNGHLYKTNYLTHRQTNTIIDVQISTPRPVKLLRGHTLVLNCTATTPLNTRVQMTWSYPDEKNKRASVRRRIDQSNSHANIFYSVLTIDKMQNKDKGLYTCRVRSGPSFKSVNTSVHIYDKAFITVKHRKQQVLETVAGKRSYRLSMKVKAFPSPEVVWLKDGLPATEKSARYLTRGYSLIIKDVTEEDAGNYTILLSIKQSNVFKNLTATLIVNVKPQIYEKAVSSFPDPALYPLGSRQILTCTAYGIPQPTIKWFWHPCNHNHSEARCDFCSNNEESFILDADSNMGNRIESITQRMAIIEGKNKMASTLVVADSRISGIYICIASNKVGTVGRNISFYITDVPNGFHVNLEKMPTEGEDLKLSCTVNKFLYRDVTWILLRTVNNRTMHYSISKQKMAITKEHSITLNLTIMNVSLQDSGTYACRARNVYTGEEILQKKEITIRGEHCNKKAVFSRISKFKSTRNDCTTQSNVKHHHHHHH
Text: To measure the concentration of total sFlt and its isoforms, sFlt1-1 and sFlt1-14, in biological fluid, a capture ELISA was developed. Using an anti-sFlt human antibody to capture total sFlt and mouse antibodies 10 ugR#9, EX14-1 or 1C-KLH-18 to detect bound sFlt, allows the efficient capture of sFlt in biological fluid without high background or interference (FIG. 4). […] The sFlt1-specific mAb, 1C-KLH-18, detects recombinant human sFlt1-1, but not sFlt1-14 (FIG. 4A,B). Conversely, the sFlt1-14-specific mAb, EX14-1, detects recombinant human sFlt1-14, but not sFlt1-1 (FIG. 4A,B). In addition, each mAb detects a protein in human amniotic fluid (known from the literature to contain both sFlt isoforms; FIG. 4C) and no background is observed in normal human sera, which should contain very low levels of sFlt isoforms (FIG. 4D).
A capture ELISA format was utilized to quantify the total sFlt, sFlt1-1 or sFlt1-14 concentration in solution. Briefly, high-binding ELISA plates (Costar) were coated with 1 ug/ml of an anti-sFlt human antibody overnight at 4° C. This anti-sFlt antibody was selected to provide a capture reagent that bound both sFlt1-1 and sFlt1-14 at an epitope in their homologous regions without interfering with the availability of the epitopes bound by the antibodies of the present disclosure. […]

[3] = biological target: T3, recombinant human sFlt1-14 with C-terminal 6-histidine tag, expressed in CHO cells (human, UniProt P17948 27-705); test: Octet QK (BLI), mAb captured on anti-murine biosensor, recombinant sFlt in solution
T3 construct: also called sFlt1_v2; sFlt1-e15a
T3 sequence (P17948 other isoform, or with tags, fused parts or gaps): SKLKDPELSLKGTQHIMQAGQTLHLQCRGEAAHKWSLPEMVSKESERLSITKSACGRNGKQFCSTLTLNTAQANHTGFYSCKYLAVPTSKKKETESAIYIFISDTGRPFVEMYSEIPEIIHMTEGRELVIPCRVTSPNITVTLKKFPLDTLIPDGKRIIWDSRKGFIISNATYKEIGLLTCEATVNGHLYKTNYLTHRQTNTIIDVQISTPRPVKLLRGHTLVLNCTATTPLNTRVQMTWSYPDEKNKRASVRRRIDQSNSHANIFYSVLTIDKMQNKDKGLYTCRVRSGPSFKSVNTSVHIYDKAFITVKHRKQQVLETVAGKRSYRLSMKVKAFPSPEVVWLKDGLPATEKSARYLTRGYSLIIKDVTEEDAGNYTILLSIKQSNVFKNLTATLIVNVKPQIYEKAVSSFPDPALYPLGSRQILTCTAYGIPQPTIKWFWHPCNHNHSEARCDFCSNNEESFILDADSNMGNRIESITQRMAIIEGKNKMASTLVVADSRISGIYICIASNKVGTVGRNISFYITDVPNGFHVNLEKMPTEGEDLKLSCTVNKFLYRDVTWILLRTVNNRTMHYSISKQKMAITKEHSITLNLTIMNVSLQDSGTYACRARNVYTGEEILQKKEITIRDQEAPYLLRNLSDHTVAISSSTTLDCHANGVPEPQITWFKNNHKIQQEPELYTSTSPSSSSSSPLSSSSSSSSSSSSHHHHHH
Description: (§3) Affinity of antibodies was determined using an Octet QK (ForteBio) biomolecular interaction instrument. The Octet QK performs similarly to Biacore in the measurement of antibody affinity. The Octet QK uses biosensors to assess mass increases/decreases and determine rates of association and disassociation. Anti-murine or anti-human biosensors (ForteBio) were used to capture mAb in PBS (5 ug/ml) to saturation and unbound mAb was washed away. The coated biosensors were introduced into a solution containing recombinant human sFlt1-1 or sFlt1-14 at which time Kₒₙ was determined. The sensor was then introduced into a buffer solution and the Koff determined. Using Kₒₙ and Koff an affinity (KD) was calculated.

[4] = biological target: T4, TRX-Exon14 (thioredoxin with 6-histidine tag fused upstream of the sFlt1-14-specific peptide) (human); test: ELISA of hybridoma cultures on coated TRX-Exon14
T4 construct: Bacterially expressed screening antigen coated on ELISA plates; not shown: N-terminal thioredoxin (TRX) with 6-histidine tag from pET32a(+)
T4 chain: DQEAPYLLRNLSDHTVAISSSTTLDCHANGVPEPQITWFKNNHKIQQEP
Description: as §1, §2

[5] = biological target: T1, GST-1C (glutathione S-transferase fused …); test: ELISA of hybridoma cultures on coated GST-1C
Description: as §1, §2

[6] = biological target: T3, recombinant human sFlt1-14 with …; test: western blot, reducing SDS-PAGE, nitrocellulose, probed with 1C-KLH-18, HRP anti-mouse secondary
Description: Specificity of mAbs to sFIt1-14 and SFIt1-1 was investigated by western blot analysis on human amniotic fluid (FIG. 3). […] As standards, human recombinant sFlt1-1 or sFlt1-14 was loaded in final quantities of 200, 100 and 50 ng. After electrophoresis and transfer to nitrocellulose membranes, blots were blocked in 5% BSA and probed with EX14-1 (FIG. 3A), 1C-KLH-18 (FIG. 3B) or a commercially available mouse anti-VEGFR1 mAb (FIG. 3C) that recognized a single protein in amniotic fluid at the expected molecular weight (˜115 kDa) that corresponds to recombinant human sFlt1-14 and sFlt1-1, respectively. After washing, an HRP-labeled anti-mouse secondary antibody was used to detect bound mAb, developed and visualized using a Kodak Gel Logic imaging system. In addition, both mouse mAbs specifically recognized their recombinant sFlt1 isoform standards by western blot.

[7] = biological target: T2, recombinant human sFlt1-1 with …; test: Octet QK (BLI), mAb captured on anti-murine biosensor, recombinant sFlt in solution
Description: as §3

- binding result [1]: no binding
- binding result [2]: no binding
- Kd [3]: 39.5 nM
- binding result [4]: binds
B1: mouse mAb EX14-1 (antibody, V domains shown)
VH: QIQLVQSGPELKKPGETVKISCTTSGYIFTTSGMSWVKQAPGKGLQWMGWINTYSGEPTYADDFKGRFAFSLETSASTAYLHINDLKNEDTATYFCARSRNNYEGFAYWGQGTLVTVSV
VL: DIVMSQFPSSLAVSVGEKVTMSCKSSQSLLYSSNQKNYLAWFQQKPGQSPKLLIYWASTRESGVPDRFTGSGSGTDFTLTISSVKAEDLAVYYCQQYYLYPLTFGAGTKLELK
notes: Murine hybridoma mAb with a kappa light chain (VK); also called sFlt1-14-specific mAb

- binding result [5]: binds
- binding result [6]: no binding (tested: 200 ng per lane)
- Kd [7]: 4.3 nM
B2: mouse mAb 1C-KLH-18 (antibody, V domains shown)
VH: EVQLQQSGAELVRPGASVKLSCTASGVNIKDDYMNWVNQRPEQGLEWIGWIDPENGDTEYASKFQGKATITADTSSNTAYLQLSSLTSEDTAVYYCAAGYDYFPFVYWGQGTLVAVSA
VL: DVLMSQTPLSLPVSLGDQASISCRSSQNIVHSNGNTYLEWYLQKPGQSPKLLIHKVSNRFSGVPDRFSGSGSGTDFTLKISRVEAEDLGVYYCFQGSHVPFTFGSGTKLEKK
notes: Murine hybridoma mAb with a kappa light chain (VK); It was used as hybridoma supernatant or Protein A purified mAb; also called sFlt1-specific mAb; sFlt1-1-specific mAb

Source: patent publication US20160347843A1 (UNIVERSITY OF MASSACHUSETTS, published 2016)
